# Experimental data reported in PMC8390433.
# Molecular target: Arc (Activity-regulated cytoskeleton-associated protein, Arg3.1) (UniProt Q9WV31)
# Assay: dynamic light scattering, 20°C and 30°C
# Details: reference: wild type Arc; sites T278
substance,measurement,value
"Arc (Activity-regulated cytoskeleton-associated protein, Arg3.1) (from UniProt Q9WV31) T278D",other: DLS large-species diameter (share) at 30°C,stronger; reference 333.00± 68.4 (74%)
